The target of assay [1] is glycocalicin, the carbohydrate-rich extracellular portion of the platelet membrane glycoprotein GPIbα (human) (UniProt P07359). Briefly: binding of whole bacteria to immobilised protein in microtiter wells; as a1, bacteria diluted into DPBS containing 44 mM α-2,3-sialyl (1-thioethyl)galactose, pH 7.5, compared with DPBS alone.
The target of assay [2] is glycocalicin (Homo sapiens) (UniProt P07359). The following applies: cited from earlier work.

By Kd is commonly meant the constant that tells how readily two partners part at equilibrium.

glycocalicin (Homo sapiens), sequence (P07359 17-506): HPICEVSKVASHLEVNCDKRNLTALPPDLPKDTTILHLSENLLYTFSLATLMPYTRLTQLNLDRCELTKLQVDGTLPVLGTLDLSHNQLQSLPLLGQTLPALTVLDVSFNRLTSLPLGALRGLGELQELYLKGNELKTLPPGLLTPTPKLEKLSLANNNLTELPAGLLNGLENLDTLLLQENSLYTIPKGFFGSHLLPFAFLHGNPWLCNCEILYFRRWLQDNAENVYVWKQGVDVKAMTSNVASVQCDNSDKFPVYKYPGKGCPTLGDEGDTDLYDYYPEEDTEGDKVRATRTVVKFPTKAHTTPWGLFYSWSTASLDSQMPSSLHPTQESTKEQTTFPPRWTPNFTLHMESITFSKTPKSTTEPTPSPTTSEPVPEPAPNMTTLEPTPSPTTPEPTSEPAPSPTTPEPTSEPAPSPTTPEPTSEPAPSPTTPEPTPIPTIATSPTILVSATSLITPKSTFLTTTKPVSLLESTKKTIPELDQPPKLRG
GspB of Streptococcus gordonii strain M99, wild type, on the bacterial cell surface, Q939N5 86-3041 (natural protein; carries sialyl-T antigen carbohydrates (sites not stated)), sequence (Q939N5 86-3041): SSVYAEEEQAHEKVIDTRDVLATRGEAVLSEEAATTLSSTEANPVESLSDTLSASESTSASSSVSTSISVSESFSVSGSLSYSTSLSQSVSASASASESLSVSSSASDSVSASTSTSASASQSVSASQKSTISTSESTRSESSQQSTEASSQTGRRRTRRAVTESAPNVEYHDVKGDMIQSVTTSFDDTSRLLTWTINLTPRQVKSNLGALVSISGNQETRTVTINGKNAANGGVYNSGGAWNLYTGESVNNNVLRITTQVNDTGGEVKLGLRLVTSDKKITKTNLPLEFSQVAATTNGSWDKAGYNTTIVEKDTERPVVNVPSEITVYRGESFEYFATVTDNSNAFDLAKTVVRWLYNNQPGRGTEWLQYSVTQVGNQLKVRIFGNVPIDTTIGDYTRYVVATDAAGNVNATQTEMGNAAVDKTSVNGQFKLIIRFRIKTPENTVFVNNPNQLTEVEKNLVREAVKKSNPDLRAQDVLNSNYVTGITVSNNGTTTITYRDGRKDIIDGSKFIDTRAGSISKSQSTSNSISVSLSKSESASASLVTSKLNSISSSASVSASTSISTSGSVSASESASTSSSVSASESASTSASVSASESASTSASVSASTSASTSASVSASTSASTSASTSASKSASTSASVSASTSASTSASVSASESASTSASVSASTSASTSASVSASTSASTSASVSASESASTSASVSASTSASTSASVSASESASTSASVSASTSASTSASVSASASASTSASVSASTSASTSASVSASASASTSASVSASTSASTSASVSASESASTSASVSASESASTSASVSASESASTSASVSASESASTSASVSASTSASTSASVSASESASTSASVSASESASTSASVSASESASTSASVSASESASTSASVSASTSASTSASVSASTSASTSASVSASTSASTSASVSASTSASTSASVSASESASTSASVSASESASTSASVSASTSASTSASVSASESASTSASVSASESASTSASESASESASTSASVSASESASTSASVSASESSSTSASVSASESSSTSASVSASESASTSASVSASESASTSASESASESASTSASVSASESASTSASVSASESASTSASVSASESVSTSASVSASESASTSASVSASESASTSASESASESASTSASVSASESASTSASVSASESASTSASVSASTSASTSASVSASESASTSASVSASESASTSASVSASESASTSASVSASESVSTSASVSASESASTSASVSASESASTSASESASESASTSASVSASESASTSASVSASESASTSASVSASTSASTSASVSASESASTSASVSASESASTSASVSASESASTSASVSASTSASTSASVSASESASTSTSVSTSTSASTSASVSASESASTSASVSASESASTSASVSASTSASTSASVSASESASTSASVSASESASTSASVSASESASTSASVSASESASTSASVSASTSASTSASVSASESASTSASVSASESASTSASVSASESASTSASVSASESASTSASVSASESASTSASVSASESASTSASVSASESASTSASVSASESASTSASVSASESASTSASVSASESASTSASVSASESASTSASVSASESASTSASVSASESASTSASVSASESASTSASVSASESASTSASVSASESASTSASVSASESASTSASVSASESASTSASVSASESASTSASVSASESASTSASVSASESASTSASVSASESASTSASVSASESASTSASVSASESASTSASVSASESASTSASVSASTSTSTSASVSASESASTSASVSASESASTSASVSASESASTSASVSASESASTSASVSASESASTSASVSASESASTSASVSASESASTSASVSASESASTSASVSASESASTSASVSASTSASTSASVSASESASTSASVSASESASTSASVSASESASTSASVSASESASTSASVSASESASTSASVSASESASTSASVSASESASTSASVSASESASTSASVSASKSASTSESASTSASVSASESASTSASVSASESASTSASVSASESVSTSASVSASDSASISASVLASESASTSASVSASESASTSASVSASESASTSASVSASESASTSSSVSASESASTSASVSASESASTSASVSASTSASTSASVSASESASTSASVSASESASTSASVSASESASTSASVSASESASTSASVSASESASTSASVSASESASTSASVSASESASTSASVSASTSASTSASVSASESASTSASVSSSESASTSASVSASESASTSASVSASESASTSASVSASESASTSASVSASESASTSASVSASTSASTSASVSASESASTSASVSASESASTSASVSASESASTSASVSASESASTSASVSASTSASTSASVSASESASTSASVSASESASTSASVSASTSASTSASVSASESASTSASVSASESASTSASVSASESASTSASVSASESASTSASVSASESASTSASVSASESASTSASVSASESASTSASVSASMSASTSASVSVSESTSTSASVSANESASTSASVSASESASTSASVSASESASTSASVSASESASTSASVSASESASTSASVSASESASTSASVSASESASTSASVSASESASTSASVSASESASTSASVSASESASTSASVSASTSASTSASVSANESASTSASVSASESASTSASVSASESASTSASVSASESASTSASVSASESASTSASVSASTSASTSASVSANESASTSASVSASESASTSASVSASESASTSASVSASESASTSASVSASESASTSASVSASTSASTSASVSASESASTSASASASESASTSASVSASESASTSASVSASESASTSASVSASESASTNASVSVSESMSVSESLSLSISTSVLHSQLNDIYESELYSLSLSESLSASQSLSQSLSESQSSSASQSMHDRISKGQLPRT
glycocalicin, the carbohydrate-rich extracellular portion of the platelet membrane glycoprotein GPIbα (human), sequence (P07359 17-531): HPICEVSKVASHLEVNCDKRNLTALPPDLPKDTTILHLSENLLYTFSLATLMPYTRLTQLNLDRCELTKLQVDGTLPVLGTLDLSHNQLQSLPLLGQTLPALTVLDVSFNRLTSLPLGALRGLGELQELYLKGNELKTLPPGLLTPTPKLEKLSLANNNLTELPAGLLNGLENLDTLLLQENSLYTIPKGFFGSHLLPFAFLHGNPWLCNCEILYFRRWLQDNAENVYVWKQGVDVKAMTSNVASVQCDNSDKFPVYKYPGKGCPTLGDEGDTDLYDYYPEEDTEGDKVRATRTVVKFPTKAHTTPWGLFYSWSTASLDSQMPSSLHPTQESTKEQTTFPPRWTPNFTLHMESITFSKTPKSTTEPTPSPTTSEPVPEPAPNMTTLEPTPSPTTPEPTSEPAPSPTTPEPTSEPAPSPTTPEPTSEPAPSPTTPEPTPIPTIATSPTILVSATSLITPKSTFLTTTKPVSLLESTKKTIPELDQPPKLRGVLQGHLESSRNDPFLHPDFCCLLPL

With “GspB of Streptococcus gordonii strain M99, wild type, on the bacterial cell surface, Q939N5 86-3041 (natural protein; carries sialyl-T antigen carbohydrates (sites not stated))”, the percent reduction of binding by 44 mM α-2,3-sialyl (1-thioethyl)galactose in assay [1] was determined as 90%. Regarding GspB (from UniProt Q939N5), the Kd in assay [2] was 23.8 nM.

Source of the values: publication PMC3131266.
